Test results reported in paper PMC13291817.

What was measured:
[1] = target: RGH2-Exo70 domain (residues 1033-1637), purified from E. coli (barley (Hordeum vulgare)); experiment: ITC; MicroCal PEAQ-ITC; […]; 25 °C; 20 mM HEPES pH 7.5, 150 mM NaCl, 5% glycerol; […]
[2] = target: RGH2^+-Exo70 domain (residues 1033-1637), purified from E. coli (barley (Hordeum vulgare)); experiment: as above

AVR-Pii^Rb, purified from E. coli (natural protein)
Kd [1]: 15 µM
Kd [2]: 3.12 µM
